Patent publication US7589167B2, “ZA loops of bromodomains” (J. David Gladstone Institutes, priority 2000, dated 2009)
Residue numbers refer to the chain shown, from its start. Entries after “also recorded” stand apart in the source; their conditions may differ. Where two headings read alike, the source gives them in different places. Where a SMILES comes first, the peptide text is derived from it. Where no end group is shown, it is not given here.

Assays:
P/CAF bromodomain [1] = biological target: T1, P/CAF bromodomain (Homo sapiens, UniProt Q92831, P804A/P805A); assay: NMR ligand titration (2D 15N-/13C-HSQC chemical shift changes) of the P/CAF bromodomain; type: binding; conditions: for binding to the P/CAF bromodomain (qualitative): NMR titration, chemical shift changes
T1 construct: poly-His (N, cleaved yes); made in house; host or cells: Escherichia coli BL21(DE3)
T1 sequence (Q92831 719-832 P804A/P805A): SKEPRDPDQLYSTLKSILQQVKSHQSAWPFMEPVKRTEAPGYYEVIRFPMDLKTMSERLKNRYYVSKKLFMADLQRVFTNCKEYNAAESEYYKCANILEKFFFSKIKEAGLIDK
Procedure: (§1) NMR spectroscopy: All NMR spectra were acquired at 30° C. on a Bruker DRX600 or DRX500 spectrometer. The backbone assignments of the ^1H, ^13C, and ^15N resonances were achieved using deuterium-decoupled triple-resonance experiments of HNCACB and HN(CO)CACB [Yamazaki et al., J. Am. Chem. Soc. 116:11655-11666 (1994)] recorded using the uniformly ^15N/^13C-labeled and fractionally deuterated protein. The side-chain atoms were assigned from 3D HCCH-TOCSY [Clore and Gronenbom, Meth. Enzymol. 239:249-363 (1994)] and (H)C(CO)NH-TOCSY [Logan et al., J. Biolmol. NMR 3:225-231 (1993)] data collected on the uniformly ^15N/^13C-labeled protein. Stereospecific assignments of methyl groups of the Val and Leu residues were obtained using a fractionally ^13C-labeled sample [Neri et al., Biochemistry 28:7510-7516 (1989)]. The NOE-derived distance restraints were obtained from ^15N- or ^13C-edited 3D NOESY spectra. φ-angle restraints were determined based on the ^3JHn,Hα coupling constants measured in a 3D H spectrum [Clore and Gronenbom, Meth. Enzymol. 239:249-363 (1994)]. Slowly exchanging amide protons were identified from a series of 2D ^15N-HSQC spectra recorded after the H2O buffer was changed to a ^2H2O buffer. The intermolecular NOEs used in defining the structure of the bromodomain/Ac-histamine complex were detected in ^13C-edited (F1), ^13C/^15N-filtered (F3) 3D NOESY spectrum [Clore and Gronenbom, Meth. Enzymol. 239:249-363 (1994)]. All NMR spectra were processed with the NMRPipe/NMRDraw programs and analyzed using NMRView [Johnson and Blevins, J. Biomol., NMR 4:603-614 (1994)].
(§2) Ligand titration: Ligand titration experiments were performed by recording a series of 2D ^15N—- and ^13C-HSQC spectra on the uniformly ^15N-, and ^15N/^13C-labelled bromodomain (˜0.3 mM), respectively, in the presence of different amounts of ligand concentration ranging from 0 to approximately 2.0 mM. The protein sample and the stock solutions of the ligands were all prepared in the same aqueous buffer containing 100 mM phosphate and 5 mM perdeuterated DTT at pH 6.5.
as §1, with “the uniformly ^15N/^13C-labelled and fractionally” for “the uniformly ^15N/^13C-labeled and fractionally”, “of the valine and leucine” for “of the Val and Leu”, “valine and leucine residues were” for “Val and Leu residues were”, “3D NOESY spectra [Clore and Gronenbom, Meth. Enzymol. 239:249-363 (1994)]. φ-angle restraints” for “3D NOESY spectra. φ-angle restraints”, “on the ^3JHN,H coupling constants” for “on the ^3JHn,Hα coupling constants”, “a 3D HNHA spectrum [Clore” for “a 3D H spectrum [Clore”
Ligand titration experiments were performed by recording a series of 2D ^15N-HSQC spectra on the uniformly ^15N-labelled bromodomain (˜0.3 mM), respectively, in the presence of different amounts of ligand concentration ranging from 0 to ˜2.0 mM.

P/CAF bromodomain [2] = biological target: T1, P/CAF bromodomain; assay: Peptide competition assay with biotinylated wild type Tat AcK50 peptide (western blot); type: binding; conditions: protein ~10 μM, wild type:mutant peptide 1:2
[3] = system: biotinylated and lysine-acetylated Tat peptide; assay: Mutational analysis: binding of P/CAF bromodomain mutant proteins to immobilized lysine-acetylated Tat peptide; parameters: species or system HIV-1; conditions: peptide immobilized onto streptavidin agarose
Procedure: Site directed mutagenesis. Site directed mutagenesis was performed on selected residues of P/CAF Bromodomain using quick-change kit (Stratagene). The mutants were confirmed by sequencing and proteins were expressed and purified as above.
Peptide binding assay. Equal amount (10 μM) of GST, GST-P/CAF bromodomain and its mutant proteins, as well as various GST-fusion bromodomains from CBP and TIF1β were incubated for at least two hours at room temperature with the N-terminal biotinylated and lysine-acetylated Tat peptide (50 μM) in a 50 mM Tris buffer of pH 7.5, containing 50 mM NaCl, 0.1% BSA and 1 mMDTT. Streptavidin agarose (10 μL) was added to mixture and the beads were washed twice in the Tris buffer with 500 mM NaCl and 0.1% NP-40. Proteins were eluted from the argarose beads in SDS buffer and separated on a 14% SDS-PAGE. The resolved proteins were transferred onto nitrocellulose membrane (Pharmacia), and the membrane was blocked overnight with 5% non-fat milk in washing buffer of 20 mM Tris, pH 7.5, plus 150 mM NaCl and 0.1% Tween-20 at 4° C. Western blotting was performed with anti-GST antibody (Sigma) and goat anti-rabbit IgG conjugated with horseradish-peroxidase (Promega) and developed by chemiluminescence. Peptide competition experiments were performed by incubating various non-biotinylated and mutant Tat peptide with the P/CAF bromodomain and the biotinylated and wild type Tat peptide. The molar ratio of the wild type and mutant Tat peptides in the mixture were kept at 1:2. The binding results were analyses by using the procedure as described above.
To identify the amino acid residues of the P/CAF bromodomain that are important for complex formation, mutant proteins were tested for binding to the biotinylated and lysine-acetylated Tat peptide that is immobilized onto streptavidin agarose (FIG. 10A). […] The results from the mutational analysis agree with the observations of intermolecular NOEs in the NMR spectra.

[4] = system: lysine-acetylated H4 peptide; assay: NMR titration of wild-type and mutant P/CAF bromodomain proteins with the H4 AcK peptide; type: binding; conditions: for binding of bromodomain mutants to the lysine-acetylated H4 peptide (qualitative): NMR titration; for Kd: read-out: H4 AcK-Peptide Binding KD
Procedure: (§3) Site-directed mutagenesis: Mutant proteins were prepared using the QuickChange site-directed mutagenesis kit (Stratagene). The presence of appropriate mutations was confirmed by DNA sequencing.
as §2

[5] = Structural integrity of P/CAF bromodomain mutants by 15N-HSQC spectra; type: physicochemical; parameters: key: ++++: as stable as the wild-type; +++: mildly destabilized; ++: moderately destabilized; −: completely unfolded; conditions: relative to wild-type
Procedure: as §3

[6] = system: Tat transactivation activity; assay: Superinduction of Tat transactivation activity by P/CAF; type: cell-based, HIV-1
Text: FIG. 7 is a bar graph of the measurement of superinduction of Tat transactivation activity by P/CAF. Tat-KK is the wild type Tat protein, and Tat-RR is the double mutant Tat carrying lysine to arginine mutations at K50 and K51 positions.

P/CAF = biological target: T2, P/CAF (Homo sapiens, UniProt Q92831); assay: Western blot assay to detect P/CAF interaction with the Tat protein in cells; type: cell-based; conditions: FLAG-Tat, HA-P/CAF
T2 construct: HA; expressed in transfected cells
Text: FIGS. 8A-8B show a western blot assay to detect P/CAF interaction with the Tat protein. Note that the protein-protein interaction was only observed with the wild type Tat but not with the Tat K50R/K51R mutant protein. The FLAG was joined to the Tat peptide, whereas the HA-tag was joined to P/CAF.

[7] = estimated from amide chemical shift changes in 15N-HSQC vs ligand concentration

T2 sequence (Q92831 whole entry): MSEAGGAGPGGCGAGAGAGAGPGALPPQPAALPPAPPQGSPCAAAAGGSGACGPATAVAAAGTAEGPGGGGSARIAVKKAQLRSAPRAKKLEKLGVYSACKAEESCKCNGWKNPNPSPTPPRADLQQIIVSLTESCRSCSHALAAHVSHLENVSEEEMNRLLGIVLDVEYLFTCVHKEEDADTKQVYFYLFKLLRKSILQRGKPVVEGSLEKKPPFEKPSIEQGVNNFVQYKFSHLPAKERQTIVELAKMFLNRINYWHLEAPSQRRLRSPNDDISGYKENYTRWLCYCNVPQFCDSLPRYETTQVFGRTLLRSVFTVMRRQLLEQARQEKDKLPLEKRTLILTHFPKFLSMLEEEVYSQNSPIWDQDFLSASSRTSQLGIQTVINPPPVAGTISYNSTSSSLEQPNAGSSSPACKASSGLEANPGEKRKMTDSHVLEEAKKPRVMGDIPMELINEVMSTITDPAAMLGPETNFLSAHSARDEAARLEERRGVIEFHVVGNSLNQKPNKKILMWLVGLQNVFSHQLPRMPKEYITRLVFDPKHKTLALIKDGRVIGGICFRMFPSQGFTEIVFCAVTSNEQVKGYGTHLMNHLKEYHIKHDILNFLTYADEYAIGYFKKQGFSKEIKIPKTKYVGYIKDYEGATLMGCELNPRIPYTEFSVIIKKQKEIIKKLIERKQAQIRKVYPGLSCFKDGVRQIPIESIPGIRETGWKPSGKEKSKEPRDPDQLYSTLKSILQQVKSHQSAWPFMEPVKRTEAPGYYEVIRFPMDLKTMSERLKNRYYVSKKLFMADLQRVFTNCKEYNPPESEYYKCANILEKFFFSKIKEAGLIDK

Molecule: ISYGR-AcK-KRRQRR
- binding to the P/CAF bromodomain (qualitative) (P/CAF bromodomain [1]): bind to the P/CAF bromodomain

Molecule: CC(=O)NCCCC[C@H](NC(=O)[C@H](CCCCN)NC(=O)[C@H](CS)NC(=O)[C@H](Cc1ccc(O)cc1)NC(=O)[C@H](CS)NC(=O)[C@H](CC(N)=O)NC(=O)[C@@H](N)[C@@H](C)O)C(=O)N[C@@H](CS)C(=O)N[C@@H](CS)C(=O)N[C@@H](Cc1ccccc1)C(=O)N[C@@H](Cc1c[nH]cn1)C(=O)O [Tat AcK 28 peptide, TNCYCK-AcK-CCFH] (H-TNCYCKK(Ac)CCFH-OH)
- competition with / binding relative to Tat AcK50 peptide (qualitative) (P/CAF bromodomain [2]): almost no competition

Molecule: CC(=O)NCCCC[C@H](NC(=O)CNC(=O)CNC(=O)[C@H](CCCCN)NC(=O)CNC(=O)[C@H](CCCNC(=N)N)NC(=O)CNC(=O)[C@@H](N)CO)C(=O)NCC(=O)N[C@@H](CC(C)C)C(=O)NCC(=O)N[C@@H](CCCCN)C(=O)O [SGRGKGG-AcK-GLGK]
- Kd (P/CAF bromodomain [1]; estimated from NMR titration, 15N-HSQC, pH 6.5, 30° C., read-out: dissociation constant (KD)): 346 ± 54 µM

Molecule: SYGRK(Ac)KRRQRC [Tat AcK50 peptide, SYGR-AcK-KRRQRC]
- Kd (P/CAF bromodomain [1]): ~20 µM

Molecule: CC(=O)N[C@@H](Cc1c[nH]cn1)C(=O)O [acetyl-histidine]
- binding to the P/CAF bromodomain (qualitative) (P/CAF bromodomain [1]): did not bind; also recorded: does not to bind

Molecule: ARKSTGG-AcK-APRKQL (ARKSTGGXAPRKQL; acetyl-lysine; synthetic bromodomain peptide)
- binding to the P/CAF bromodomain (qualitative) (P/CAF bromodomain [1]): bind to the P/CAF bromodomain

Molecule: CC(=O)N[C@@H](CCCCN)C(=O)O [acetyl-lysine]
- binding to the P/CAF bromodomain (qualitative) (P/CAF bromodomain [1]): did not bind; also recorded: does not appear to bind

Molecule: QSTSRHK-AcK-LMFKTE (QSTSRHKXLMFKTE; acetyl-lysine; synthetic bromodomain peptide)
- binding to the P/CAF bromodomain (qualitative) (P/CAF bromodomain [1]): bind to the P/CAF bromodomain

Molecule: CC(=O)NCCc1cnc[nH]1 [acetyl-histamine]
- binding to the P/CAF bromodomain (qualitative) (P/CAF bromodomain [1]): chemical shift perturbations with similar concentration dependence and does

B1: Tyr809Ala: P/CAF bromodomain point mutant, Tyr809 to Ala (protein)
chain: T1 sequence (Q92831 719-832 P804A/P805A) with Y91A
- binding of alanine point mutants to the Tat AcK50 peptide (qualitative) [3]: nearly complete loss or significantly reduced binding
- binding of bromodomain mutants to the lysine-acetylated H4 peptide (qualitative) [4]: completely abrogated
- H4 AcK-Peptide Binding KD (μM) [4, 7]: No Binding ^c
- Structural Integrity [5]: ++++

B2: Tyr802Ala: P/CAF bromodomain point mutant, Tyr802 to Ala (protein)
chain: T1 sequence (Q92831 719-832 P804A/P805A) with Y84A
- binding of alanine point mutants to the Tat AcK50 peptide (qualitative) [3]: nearly complete loss or significantly reduced binding
- binding of bromodomain mutants to the lysine-acetylated H4 peptide (qualitative) [4]: significantly reduced ligand binding affinity
- Kd [4, 7]: > 10000 µM
- Structural Integrity [5]: +++

B3: Tyr760Ala: P/CAF bromodomain point mutant, Tyr760 to Ala (protein)
chain: T1 sequence (Q92831 719-832 P804A/P805A) with Y42A
- binding of bromodomain mutants to the lysine-acetylated H4 peptide (qualitative) [4]: significantly reduced ligand binding affinity
- Kd [4, 7]: > 10000 µM
- Structural Integrity [5]: +++

B4: Val752Ala (protein)
chain: T1 sequence (Q92831 719-832 P804A/P805A) with V34A
- binding of alanine point mutants to the Tat AcK50 peptide (qualitative) [3]: nearly complete loss or significantly reduced binding
- binding of bromodomain mutants to the lysine-acetylated H4 peptide (qualitative) [4]: significantly reduced ligand binding affinity
- Kd [4, 7]: > 10000 µM
- Structural Integrity [5]: ++

B5: Tat: wild type HIV-1 Tat protein (SEQ ID NO:45) (protein)
chain: MEPVDPRLEPWKHPGSQPKTASNNCYCKRCCLHCQVCFTKKGLGISYGRKKRRQRRRAPQDSKTHQVSLSKQPASQPRGDPTGPKESKKKVERETETDPED
modifications: Human immunodeficiency virus type 1; Tat protein
- increase of Tat transactivation activity upon P/CAF stimulation [6]: ≤ 30 fold
- specific interaction with P/CAF in cells (P/CAF): detected

B6: Wild-Type: wild-type bromodomain of P/CAF (residues 719-832 of SEQ ID NO:2) (protein, listed as Homo sapiens)
chain: T1 sequence (Q92831 719-832 P804A/P805A)
- Kd [4, 7]: 346 ± 54 µM
- Structural Integrity [5]: ++++
